Laboratory results published in paper PMC3553976.

Biological target: U2AF65 (UniProt P26368)
Experiment: NMR binding data
Details: reference: non-phosphorylated SF1 construct; sites S80,S82

## splicing factor 1 (SF1) (from UniProt Q15637) KIS-phosphorylated SF1 construct
  binding against the reference: same
